From publication doi:10.1101/2020.12.10.419135

Biological target: Recombinant human glutamine synthetase (GS) (human) (UniProt P15104)
Experiment: MST

Sequence of UniProt P15104 (P15104 whole entry): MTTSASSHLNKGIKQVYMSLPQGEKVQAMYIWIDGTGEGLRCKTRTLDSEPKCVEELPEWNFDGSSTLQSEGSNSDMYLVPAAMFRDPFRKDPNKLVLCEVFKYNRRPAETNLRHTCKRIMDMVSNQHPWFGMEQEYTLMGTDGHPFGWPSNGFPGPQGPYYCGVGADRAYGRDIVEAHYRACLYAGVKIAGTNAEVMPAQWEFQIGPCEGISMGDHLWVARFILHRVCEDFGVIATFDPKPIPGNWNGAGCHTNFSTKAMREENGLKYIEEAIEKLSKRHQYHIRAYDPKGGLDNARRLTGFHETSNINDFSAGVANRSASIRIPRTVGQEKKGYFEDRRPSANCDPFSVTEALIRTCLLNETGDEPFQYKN

contryphan-Bt (peptide)
Kd: 74 µM
